The record followed here is PMC10702856 (Antibody Therapeutics, 2023).

The target in experiment [1] is ADDoCoV (ADDomer-COVID-19 vaccine) nanoparticle (human adenovirus serotype Ad3 | …, UniProt P0DTC2).
For experiment [2], the target named is SARS-CoV-2 S receptor binding domain, Ancestral (SARS-CoV-2, Ancestral strain, UniProt P0DTC2).

B1: ADAH14 (VHH)
VHH: QVQLQESGGGLVQAGGSLRLSCAASGSYFFHALMGWFRQAPVKEREFVASITAVPGATYYRRCTDSVKGRFTISRDNAKNTVYLQMNSLKPEDTAVYYCALATHSNRHTPITYWGQGTQVTVSS
Regarding B1, the binding result in experiment [1] and in experiment [2] was “binds” in each case.

B2: ADAH15 (VHH)
VHH: QVQLQESGGGLVQAGGSLRLSCAASGTTYLAANMGWFRQAPGKEREFVAAITFFHNPTVYYADSVKGRFTISRDNAKNTVYLQMNSLKPEDTAVYYCAATVLVRDRIHFSHSIGIRYWGQGTQVTVSS
With B2, the binding result in experiment [1] and in experiment [2] was “binds” each time.
